Experimental findings from the supplement of paper PMC12042874 are described below.

± gives the uncertainty stated by the source.

This data set is described as follows: amyloid nucleation score (Sup35N fusion, yeast selection) (log enrichment); library NNK3; higher = more nucleation; inactive = no reads after selection. The method in brief: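 The nucleation score equals the log enrichment of output over input reads from DiMSum, centred on the mode score of non-aggregating sequences. It was computed only for sequences with 100 or more input reads. The reads came from Illumina sequencing of plasmid inserts from psi-negative yeast expressing Sup35N fused to peptides of 20 random codons, induced with 100 μM copper sulfate for 24 hours and grown 7 days at 30°C without adenine and uracil.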

As for FHSGMHCMKDFDCLPGFVGR, the amyloid nucleation score result was “inactive”. As for NFKNMEWFLST, the amyloid nucleation score entry was “inactive”.

As for GYISMSNKHMGVYIHLA, the amyloid nucleation score entry was “inactive”.

Take VPFVRVNDALVVVSLWDKVL: the amyloid nucleation score result is “inactive”.

CRFFSGFLRPRSNVGGNRYS: the amyloid nucleation score result was “inactive”. Take LVVPGYNLL: the amyloid nucleation score entry was “inactive”. As to SWFVHKFSIRYNLFDFSYIF, the amyloid nucleation score entry was “inactive”. For DWSPLAGRRMTSAVDGVSMD, the amyloid nucleation score result was “inactive”. With PGREIVVPHFR, the amyloid nucleation score result is “inactive”. AGEKPNSIFYSTHSSRSFSN registered an amyloid nucleation score of 0.965 ± 0.17. Consider WQSRTKP, for which the amyloid nucleation score result is “inactive”. VMCGNMWVYVKSLDT yielded an amyloid nucleation score of 0.96 ± 0.11. As for LCMQFNLVWRYDRRETINSE, the amyloid nucleation score was found to be 1.16 ± 0.11. Take YWAQLPNPPYLLCPH: the amyloid nucleation score result is “inactive”. To LLTMHWVREWSDGLYCKGKL belongs “inactive”. Consider SNVNTAWKRFTRI, for which the amyloid nucleation score result was “inactive”.

For YCHILTLATVMKPTFERAPS, the amyloid nucleation score entry was “inactive”. Regarding LYVVWYSHPWTEYFACSLVA, the amyloid nucleation score entry is “inactive”. In the case of GVLVTANLYFWMEPSALPAM it was “inactive”; in that of NVFQVALRNSLSMLGSGMRM, “inactive”; in that of LVMNNRYLYSRFLLLV, -0.619 ± 0.73.

Regarding FNRGLLNHFFGH, the amyloid nucleation score entry is “inactive”. On to WGDIEVFFSYVVYLSIWRES, for which the amyloid nucleation score result is “inactive”. The substance PGDVRLGDIVLIFFLRM yielded an amyloid nucleation score of 0.781 ± 0.26.

For the substance PLPPPRKAMASLFVFLAWMA, the amyloid nucleation score entry is “inactive”. For the substance MVCEKERTWVTSRHWLERYR, the amyloid nucleation score was -0.203 ± 1.3. To IGMVHCIAEDARRLLLYIWV belongs “inactive”; to TCHLILRVFGSYNMHGS, -0.024 ± 0.96. In the case of SSSKNACDPC it was “inactive”. Consider FVIELCMWVRLEDVKLCFID, for which the amyloid nucleation score entry is “inactive”. LYSPYLGCDNGATQFWSGTT displayed an amyloid nucleation score of 0.226 ± 0.88.

GKPWCNYSDYFYCTLLVDCK: the amyloid nucleation score was -0.246 ± 0.82. To NGTNPSYNKNCFSVFVESFN belongs “inactive”. In the case of RKHLRPQSMRVDSGETLRVL, the amyloid nucleation score entry is “inactive”. On to QLMYRE, for which the amyloid nucleation score entry was “inactive”. In the case of EFMIIMYSHSLCVLQAVQLV it was “inactive”; in that of ELGIII, “inactive”. Consider EDFNRILVRNVRS, for which the amyloid nucleation score entry was “inactive”. TRMSGRHLCVITACLLTLNC showed an amyloid nucleation score of 0.576 ± 0.15. Regarding IADSKHTNCFRYMSHVW, the amyloid nucleation score result was “inactive”. For TYLHDLYT, the amyloid nucleation score result was “inactive”. In the case of TVRKSSIGGCVASYPFEHNK, the amyloid nucleation score result was “inactive”.

Turning to FSVVLYKRWWRTRMATGLLK, the amyloid nucleation score result was “inactive”. On to FSHVV, for which the amyloid nucleation score entry is “inactive”.

VFYIHIREVTSVVIILVWCS: the amyloid nucleation score result is “inactive”. In the case of LMSSGVGLPFSDTSAWLIVW it was “inactive”. To FHTYIELLRALIAIRQGGSF belongs “inactive”; to ACANYCGSFSTTTAEYDVPS, “inactive”; to RDPSQNTSKHLSNVAFISLY, “inactive”. For VCTFTETHGTYLVFALYQPD, the amyloid nucleation score amounted to 0.367 ± 0.54. In the case of LIFFRVVSQLFKFSLRDLPL it was “inactive”. As to WIGMYSGETAFLSLPVTQQI, the amyloid nucleation score entry is “inactive”. Substance RYGFCHYCYRVLDFDVDVRW had an amyloid nucleation score of 0.881 ± 0.14.

Turning to HYYVDNPD, the amyloid nucleation score result was “inactive”. Turning to SDKRQLRDR, the amyloid nucleation score entry was “inactive”. As to VCFILFSS, the amyloid nucleation score result was “inactive”.

As for IYSHSPLFLRRYGAIYESCR, the amyloid nucleation score result was “inactive”. Consider LHKLVLMINDRPYLKPS, for which the amyloid nucleation score result is “inactive”. For the substance VHKFDSL, the amyloid nucleation score result is “inactive”.

On to WNSLMAK, for which the amyloid nucleation score result was “inactive”. Take AKATMPIT: the amyloid nucleation score result was “inactive”. To NTYLVWIPRSFGQGKSNCLK belongs “inactive”; to TPYGRIFWADDIFNSVAICL, “inactive”. In the case of NPDCSQTMARGLRNSLVFLQ, the amyloid nucleation score result is “inactive”.

With VQSMKMGPVRISKCNDKSER, the amyloid nucleation score entry was “inactive”. Turning to ARRDLFHWCRRQSCVYN, the amyloid nucleation score was -0.275 ± 1.1. Turning to QGNRS, the amyloid nucleation score result is “inactive”. LFFSRS: the amyloid nucleation score result was “inactive”. For the substance NRYIGNIYEKNGNSNFKPSI, the amyloid nucleation score result is “inactive”. To DLVYHIEDMFGSMR belongs 0.547 ± 0.22; to GFEDSSIT, “inactive”; to TCVNLIMKIECFLYYGFLCP, “inactive”.

Regarding GHSEYLA, the amyloid nucleation score result is “inactive”. KGSDFSEFVAWRLLTAYRVP: the amyloid nucleation score entry is “inactive”. In the case of TICCSDLVVEDHG it was “inactive”.

As to RSSPEDPLTSFLGYTGMTAS, the amyloid nucleation score entry was “inactive”.

For YSGKYVCAVGF, the amyloid nucleation score entry was “inactive”. With RTSYLVLMKCYSALDYGVIA, the amyloid nucleation score entry was “inactive”.

For the substance VVRFLDQKMYVVGLLSGS, the amyloid nucleation score result is “inactive”. GYSNFDCLSSLNISEYGPAA: the amyloid nucleation score entry was “inactive”. Regarding ADIGPHRCVLGAMMRWCRQT, the amyloid nucleation score result is “inactive”. For CLHLWGVFKFFDVYWIMLMG, the amyloid nucleation score entry was “inactive”. Take NCQLLKLDSGSLSLCRWVHS: the amyloid nucleation score result is “inactive”. Regarding GQSVMQSAMGSISKFE, the amyloid nucleation score entry was “inactive”.

Regarding VNSGVGVSVRRASSLCLCVR, the amyloid nucleation score entry was “inactive”. Regarding GSYRWAVGGKDWGHWDRCLA, the amyloid nucleation score result is “inactive”.

In the case of IYLIPITPIPVCYKIFLFGM, the amyloid nucleation score worked out at 1.19 ± 0.079. The substance FACAFKSSCLNHLCSAVW displayed an amyloid nucleation score of 0.757 ± 0.17. As for FLMCWVLIVV, the amyloid nucleation score entry was “inactive”.

Take GVFWLLNICQYGPRLRHMWS: the amyloid nucleation score result is “inactive”. Take RQCMKRLWDSCYKKAWIKYV: the amyloid nucleation score result is “inactive”.

For the substance YVGTYNFICEAYALDMTEQW, the amyloid nucleation score result is “inactive”.

For VLCQSHACRSHAGLCSSNKI, the amyloid nucleation score entry was “inactive”. As to IGFIIGDVFAA, the amyloid nucleation score entry was “inactive”. In the case of YAATRW it was “inactive”; in that of VIKDYSQCMSWHGVESSWRL, -0.31 ± 0.68; in that of NRFLNIQKRSTPLNLPSSSV, “inactive”. To FGSVVGRCSTSFVYRLINIR belongs 0.65 ± 0.17. In the case of CFLMN, the amyloid nucleation score result is “inactive”. In the case of LDGRYKYILFLLPLCRW, the amyloid nucleation score result is “inactive”.

For the substance VTKARSHYTVSVLMDEKCMG, the amyloid nucleation score result was “inactive”. For LFVCRLMENLEGY, the amyloid nucleation score result is “inactive”. The substance LYVLSGVGICIRGDRLSC showed an amyloid nucleation score of 0.535 ± 0.36. In the case of LTVLSCTAQVDHGIAYCLEV it was “inactive”. As for FPMCFSFHLIGQ, the amyloid nucleation score entry was “inactive”. On to VSDIGCMGVDSLSPGYHNIV, for which the amyloid nucleation score entry is “inactive”.

The substance ITKQEVLSLTIFRMAEGVQW displayed an amyloid nucleation score of 0.382 ± 0.4. Take KVGFLFDGLFIFGGR: the amyloid nucleation score result was “inactive”. Consider IKTRAKLLYFQLVVLTNFLP, for which the amyloid nucleation score entry is “inactive”. On to SCGKGRYWVLNAMINPICKQ, for which the amyloid nucleation score was determined as 1.14 ± 0.096. Consider NIFSQWYIISCLFRGKLCEH, for which the amyloid nucleation score turned out to be 1 ± 0.13. Regarding YSSPRSVNSYGLDYVYRTA, the amyloid nucleation score entry is “inactive”. YNMFACGVCTLFKVGKANKF displayed an amyloid nucleation score of 2.96 ± 0.074. With YDNVVYLIVGHYG, the amyloid nucleation score result was “inactive”. In the case of NTSYLDASSNGNQRCIHSHK it was “inactive”; in that of PYSISMISTRYCLGRQHD, “inactive”. FKLWWIKCCMHPLMMHVAWM: the amyloid nucleation score is -0.036 ± 0.27.

SNFVVSNPISSRGTMNIRII: the amyloid nucleation score entry was “inactive”. Turning to YKIRFSLYVEHSVVLYVQY, the amyloid nucleation score result was “inactive”. To YKLKLIKEFCIGIRC belongs “inactive”; to SVGGEWRS, 1.34 ± 0.14. Consider IAVQLEILAY, for which the amyloid nucleation score result was “inactive”. Regarding LSGRIAKTKRLIVHRLCEEG, the amyloid nucleation score result was “inactive”.

Consider MFSCWYIISWCIEVHDGVKI, for which the amyloid nucleation score entry is “inactive”.

RLVSLSPNLLMYSNVLDYLK: the amyloid nucleation score entry was “inactive”. As to FGRFVMERLTS, the amyloid nucleation score result is “inactive”. Consider AAVWRVVKRNLCHEIGERTA, for which the amyloid nucleation score result is “inactive”. In turn, MDGPGVTFCPEVLDKWDGSI showed an amyloid nucleation score of -0.205 ± 1.4. As for IHRYGTRRYETLRGQHAPFP, the amyloid nucleation score is -0.719 ± 1.4.

As to ESETWSTYSALQHGQVAIGC, the amyloid nucleation score result was “inactive”.

As to HFLLNWSRQI, the amyloid nucleation score result was “inactive”.
